Ends that are not written are not given here.

Data set [1] has as its target HLA-A*0201 molecule expressed on human tumor cell line T2 (human). Nature of the data set: T2 cell HLA-A2 stabilisation, FACS; peptide at 10 µM.
Data set [2] has the same target. Kind of data set: T2 cell HLA-A2 stabilisation, FACS; 20% of signal of HIV pol 589-597 at 100 µM.
The target is the same in data set [3]. Kind of data set: T2 cell HLA-A2 stabilisation, FACS; peptide at 0.1 µM.
Data set [4] shares this target. Kind of data set: T2 cell HLA-A2 stabilisation, FACS; peptide at 1 µM.
Data set [5] relates to T2 cell lines loaded with bacterial peptide. Nature of the data set: Cytotoxic assay of expanded peptide-specific CD8+ T cells (Example 14). Format: cell-based, human. The settings on record: T cell clones expanded in vitro; flow cytometry readout. From the text:
CD8+ T cells expanded per above were used to perform cytotoxic assays in presence of different ratios of target and effector cells to assess their cytotoxic capacity, using flow cytometry readout. Target cells were T2 cell lines loaded with bacterial peptide. Negative control was T2 cells unloaded and T2 cells loaded with irrelevant peptide.
In general terms: In flow cytometry, cells or beads pass a laser one at a time.

The target in data set [6] is T1, HLA-A*0201 molecule expressed on human tumor cell line T2 (human).
T1 construct: surface HLA-A2 read with anti-HLA-A2 antibody BB7.2-PE by FACS; also called HLA-A2
Nature of the data set: T2 cell HLA-A2 stabilisation, FACS.

As for reference peptide HIV pol 589-597, the mean relative fluorescence intensity (relative (HIV peptide = 100)) in data set [1] came to 84.7; in data set [3], 2.4; in data set [4], 22.1. The Concentration of peptide that induces 20% of HLA-A2 expression in data set [2] was determined as 0.85 µM.
For FLPFGFILPV [IL13RA2-L], in data set [5], the “Cytotoxic capacity of peptide-specific human T cell clones (in words)” value is on record as “have the capacity to kill T2 cells loaded with the bacteria peptide”.
Consider YLYTFLIST [IL13RA2-B2 (SEQ ID NO: 192, Example 3)], for which the binding result in data set [6] is “binds”.
